Assays:
Assay in all cases: cryo-EM structure; reconstituted complex: His-MutS2 WT in tenfold excess over purified B. subtilis disomes, 50 mM HEPES/KOH pH 7.5, 75 mM KOAc, 5 mM Mg(OAc)2, 45 mM NH4Cl, 4 mM MgCl2, 1 mM MnCl2, 1 mM AMP-PNP, 30 °C for 1 h; 3.8 Å
Conditions in all cases: both partners purified
[1] = molecular target: ribosomal protein uS10 (B. subtilis (endogenous in B. subtilis …, UniProt P21471 1-102))
[2] = molecular target: ribosomal protein uS7 (B. subtilis (endogenous in B. subtilis …, UniProt P21469 1-156))
[3] = molecular target: ribosomal protein uS11 (B. subtilis (endogenous in B. subtilis …, UniProt P04969 1-131))

Measured: binding result

B1: His-MutS2 WT (recombinant B. subtilis MutS2) (natural protein)
chain: MQQKVLSALEFHKVKEQVIGHAASSLGKEMLLELKPSASIDEIKKQLDEVDEASDIIRLRGQAPFGGLVDIRGALRRAEIGSVLSPSEFTEISGLLYAVKQMKHFITQMAEDGVDIPLIHQHAEQLITLSDLERDINSCIDDHGEVLDHASETLRGIRTQLRTLESRVRDRLESMLRSSSASKMLSDTIVTIRNDRFVIPVKQEYRSSYGGIVHDTSSSGATLFIEPQAIVDMNNSLQQAKVKEKQEIERILRVLTEKTAEYTEELFLDLQVLQTLDFIFAKARYAKAVKATKPIMNDTGFIRLKKARHPLLPPDQVVANDIELGRDFSTIVITGPNTGGKTVTLKTLGLLTLMAQSGLHIPADEGSEAAVFEHVFADIGDEQSIEQSLSTFSSHMVNIVGILEQVNENSLVLFDELGAGTDPQEGAALAMSILDDVHRTNARVLATTHYPELKAYGYNREGVMNASVEFDIETLSPTYKLLIGVPGRSNAFEISKRLGLPDHIIGQAKSEMTAEHNEVDTMIASLEQSKKRAEEELSETESIRKEAEKLHKELQQQIIELNSKKDKMLEEAEQQAAEKVKAAMKEAEDIIHELRTIKEEHKSFKDHELINAKKRLEGAMPAFEKSKKPEKPKTQKRDFKPGDEVKVLTFGQKGTLLEKTGGNEWNVQIGILKMKVKEKDLEFIKSAPEPKKEKMITAVKGKDYHVSLELDLRGERYENALSRVEKYLDDAVLAGYPRVSIIHGKGTGALRKGVQDLLKNHRSVKSSRFGEAGEGGSGVTVVELK
notes: MutS2 of B. subtilis (87 kD); core/lever, clamp, P-loop ABC ATPase, KOW and SMR domains; SMR domain printed as residues 710-785; SEC: oligomer, consistent with a dimer or tetramer; the text calls it a homodimer on the disome; Only the KOW and SMR domains are resolved in the structure (AlphaFold2 models fitted as rigid bodies); also called RqcU; source: E. coli BL21(DE3), pET24d(+), purified …
binds: all assays above
